Assay results from publication PMC6768651, “A ubiquitin-like domain controls protein kinase D dimerization and activation by trans-autophosphorylation” (The Journal of Biological Chemistry, 2019).

T1: Atto488-labeled DKF-1 ULD^R42C (C. elegans, UniProt Q9XUJ7 1-94, R42C, Atto488 (maleimide-conjugated) on cysteine 42)
T1 construct: C. elegans DKF-1, residues 1-94 (ubiquitin-like domain) with the surface-exposed arginine 42 mutated to cysteine; Labeling efficiency estimated at about 80%; also called Atto488-ULD^R42C; source: E. coli BL21*, purified in the same way as the WT counterpart, labelled with maleimide-Atto488; not shown: GST, N-terminal, cleaved
T1 sequence (looked up): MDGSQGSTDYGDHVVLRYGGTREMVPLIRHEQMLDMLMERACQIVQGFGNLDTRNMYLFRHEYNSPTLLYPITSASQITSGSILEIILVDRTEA


Key:
[1] = biological target: human PKD1 kinase domain (PKD1^CAT, residues 569–892) (human) (UniProt Q15139); assay: SEC-MALS; PKD1^CAT, first run, 625 μg injected
[2] = biological target: human PKD1 kinase domain (PKD1^CAT, residues 569–892) (human) (UniProt Q15139); assay: fluorescence polarisation; fluorescence anisotropy; 195 μM PKD1^CAT with 80 nM Atto488-labeled PKD1^CAT successively diluted with buffer containing 80 nM labeled protein; 50 mM Tris pH 7.5, 220 mM KCl, 1% glycerol, 1 mM TCEP; 20 °C; single binding model; dimer to monomers
[3] = biological target: the molecule itself; assay: SEC-MALS; Superdex 200 10/300; 20 mM Tris pH 7.5, 150 mM KCl, 1 mM TCEP; 50 μl of 2.5 mg/ml protein injected
[4] = biological target: the molecule itself; assay: fluorescence polarisation; fluorescence anisotropy; unlabeled PKD1 ULD (800 μM stock) titrated into 40 nM Atto488-labeled PKD1 ULD; 20 mM Tris pH 7.5, 150 mM KCl, 1 mM TCEP, 1% glycerol; 20 °C; single binding model; dimer to monomers
[5] = biological target: T1, Atto488-labeled DKF-1 ULD^R42C; assay: fluorescence polarisation; fluorescence anisotropy; ULD or ULD^F59E (222 or 150 μM stock) titrated into 35–70 nM Atto488-ULD^R42C; 20 mM Tris pH 7.5, 150 mM KCl, 1% glycerol, 1 mM TCEP; 20 °C; single-site binding model; dimer to monomers; details: both partners purified

Molecule | stoichiometry N [3] | other results
human PKD1 kinase domain (PKD1^CAT, residues 569–892) (from UniProt Q15139 569-892) (domain or fragment) |  | stoichiometry N [1]: 2; Kd [2]: 50000 nM
human PKD1 ULD (PKD1^48–143) (domain or fragment, UniProt Q15139 48-143, looked up, human protein kinase D1 (PKD1), residues 48-143 (ubiquitin-like domain); In the anisotropy titration 40 nM of the same protein carried Atto488 (maleimide) on its surface-exposed cysteines (labeling efficiency 50%); Addgene 31527 is the plasmid carrying the PKD1 gene; also called ULD of human PKD1; source: E. coli BL21*, purified (GSH beads, TEV cleavage on beads, SEC); not shown: GST, N-terminal, …) GISFHLQIGLSREPVLLLQDSSGDYSLAHVREMACSIVDQKFPECGFYGMYDKILLFRHDPTSENILQLVKAASDIQEGDLIEVVLSASATFEDFQ | 2 | Kd [4]: 1700 ± 200 nM
DKF-1 ULD (DKF-1^1–94) (domain or fragment, C. elegans, UniProt Q9XUJ7 1-94, looked up, C. elegans PKD homolog DKF-1, residues 1-94 (ubiquitin-like domain); also called ULD^WT; source: E. coli BL21*, purified (GSH beads, TEV cleavage on beads, SEC); not shown: GST, N-terminal, cleaved) MDGSQGSTDYGDHVVLRYGGTREMVPLIRHEQMLDMLMERARQIVQGFGNLDTRNMYLFRHEYNSPTLLYPITSASQITSGSILEIILVDRTEA | 2 | Kd [5]: 650 ± 70 nM
DKF-1 ULD–C1a (DKF-1^1–151) (domain or fragment, C. elegans, UniProt Q9XUJ7 1-151, looked up, C. elegans PKD homolog DKF-1, residues 1-151 (ubiquitin-like domain and C1a domain); The final crystallographic model comprises residues 12-151; also called PKD N terminus; source: E. coli BL21*, purified (GSH beads, TEV cleavage on beads, SEC); not shown: GST, N-terminal, cleaved) MDGSQGSTDYGDHVVLRYGGTREMVPLIRHEQMLDMLMERARQIVQGFGNLDTRNMYLFRHEYNSPTLLYPITSASQITSGSILEIILVDRTEAAVIPHVVEPESYMRPTFCDFCGEMLTGLMRQGVKCKNCNGNFHKRCSNAARNNCGAP | 2 | 
human PKD3 ULD (PKD3^55–149) (domain or fragment, UniProt O94806 55-149, looked up, human protein kinase D3 (PKD3), residues 55-149 (ubiquitin-like domain); also called ULD of human PKD3; source: E. coli BL21*, purified (GSH beads, TEV cleavage on beads, SEC); not shown: GST, N-terminal, cleaved) GSVHTVSFLLQIGLTRESVTIEAQELSLSAVKDLVCSIVYQKFPECGFFGMYDKILLFRHDMNSENILQLITSADEIHEGDLVEVVLSALATVED | 2 | 
